Numbering of substitutions follows the chain as printed. Names and notes keep the numbering of the source.
B1: CE115HA000 H chain altered form W33F (antibody, human IgG1, kappa, L234A L235A, N297A, name in Kabat numbering)
heavy: QVQLVESGGGVVQPGRSLRLSCAASGFTFSNAFMHWVRQAPGKGLEWVAQIKAKSNNYATYYAESVKGRFTISRDDSKNSLYLQMNSLKTEDTAVYYCRYVHYGAYYGVDAWGQGTTVTVSSASTKGPSVFPLAPSSKSTSGGTAALGCLVKDYFPEPVTVSWNSGALTSGVHTFPAVLQSSGLYSLSSVVTVPSSSLGTQTYICNVNHKPSNTKVDKKVEPKSCDKTHTCPPCPAPEAAGGPSVFLFPPKPKDTLMISRTPEVTCVVVDVSHEDPEVKFNWYVDGVEVHNAKTKPREEQYASTYRVVSVLTVLHQDWLNGKEYKCKVSNKALPAPIEKTISKAKGQPREPQVYTLPPSRCELTKNQVSLSCAVKGFYPSDIAVEWESNGQPENNYKTTPPVLDSDGSFFLVSKLTVDKSRWQQGNVFSCSVMHEALHNHYTQKSLSLSPDYKDDDDK
chain: EPKSSDKTHTCPPCPAPELLGGPSVFLFPPKPKDTLMISRTPEVTCVVVDVSHEDPEVKFNWYVDGVEVHNAKTKPREEQYNSTYRVVSVLTVLHQDWLNGKEYKCKVSNKALPAPIEKTISKAKGQPREPQVCTLPPSRDELTKNQVSLWCLVKGFYPSDIAVEWESNGQPENNYKTTPPVLDSDGSFFLYSKLTVDKSRWQQGNVFSCSVMHEALHNRYTQKSLSLSP
light: DIVMTQSPLSLPVTPGEPASISCRSSQSLVHSNRNTYLHWYQQKPGQAPRLLIYKVSNRFSGVPDRFSGSGSGTDFTLKISRVEAEDVGVYYCGQGTQVPYTFGQGTKLEIKRTVAAPSVFIFPPSDEQLKSGTASVVCLLNNFYPREAKVQWKVDNALQSGNSQESVTEQDSKDSTYSLSSTLTLSKADYEKHKVYACEVTHQGLSSPVTKSFNRGEC
notes: one-arm antibody
B2: GLS3000 H27dA (Kabat) L chain altered form, one-arm antibody with CE115HA000 (antibody, human IgG1, kappa, L234A L235A, N297A, name in Kabat numbering)
heavy: B1 heavy with F33W
chain: B1 chain
light: B1 light with H31A
notes: one-arm antibody
B3: GLS3000 H27dK (Kabat) L chain altered form, one-arm antibody with CE115HA000 (antibody, human IgG1, kappa, L234A L235A, N297A, name in Kabat numbering)
heavy: B1 heavy with F33W
chain: B1 chain
light: B1 light with H31K
notes: one-arm antibody
B4: CE115HA000 H chain altered form Y58D (antibody, human IgG1, kappa, L234A L235A, N297A, name in Kabat numbering)
heavy: B1 heavy with F33W, Y61D
chain: B1 chain
light: B1 light
notes: one-arm antibody
B5: GLS3000 H27dM (Kabat) L chain altered form, one-arm antibody with CE115HA000 (antibody, human IgG1, kappa, L234A L235A, N297A, name in Kabat numbering)
heavy: B1 heavy with F33W
chain: B1 chain
light: B1 light with H31M
notes: one-arm antibody
B6: GLS3000 H27dL (Kabat) L chain altered form, one-arm antibody with CE115HA000 (antibody, human IgG1, kappa, L234A L235A, N297A, name in Kabat numbering)
heavy: B1 heavy with F33W
chain: B1 chain
light: B1 light with H31L
notes: one-arm antibody
B7: GLS3000 F55A (Kabat) L chain altered form, one-arm antibody with CE115HA000 (antibody, human IgG1, kappa, L234A L235A, N297A, name in Kabat numbering)
heavy: B1 heavy with F33W
chain: B1 chain
light: B1 light with F60A
notes: one-arm antibody
B8: CE115HA000 H chain altered form Y55G (antibody, human IgG1, kappa, L234A L235A, N297A, name in Kabat numbering)
heavy: B1 heavy with F33W, Y58G
chain: B1 chain
light: B1 light
notes: one-arm antibody
B9: CE115HA000 H chain altered form Y58N (antibody, human IgG1, kappa, L234A L235A, N297A, name in Kabat numbering)
heavy: B1 heavy with F33W, Y61N
chain: B1 chain
light: B1 light
notes: one-arm antibody
B10: CE115HA000 H chain altered form W33H (antibody, human IgG1, kappa, L234A L235A, N297A, name in Kabat numbering)
heavy: B1 heavy with F33H
chain: B1 chain
light: B1 light
notes: one-arm antibody
B11: CE115HA000 H chain altered form Y55D (antibody, human IgG1, kappa, L234A L235A, N297A, name in Kabat numbering)
heavy: B1 heavy with F33W, Y58D
chain: B1 chain
light: B1 light
notes: one-arm antibody
B12: CE115HA000 H chain altered form Y59E (antibody, human IgG1, kappa, L234A L235A, N297A, name in Kabat numbering)
heavy: B1 heavy with F33W, Y62E
chain: B1 chain
light: B1 light
notes: one-arm antibody
B13: GLS3000 H27dD (Kabat) L chain altered form, one-arm antibody with CE115HA000 (antibody, human IgG1, kappa, L234A L235A, N297A, name in Kabat numbering)
heavy: B1 heavy with F33W
chain: B1 chain
light: B1 light with H31D
notes: one-arm antibody
B14: GLS3000 H27dE (Kabat) L chain altered form, one-arm antibody with CE115HA000 (antibody, human IgG1, kappa, L234A L235A, N297A, name in Kabat numbering)
heavy: B1 heavy with F33W
chain: B1 chain
light: B1 light with H31E
notes: one-arm antibody
B15: CE115HA000 H chain altered form Y58K (antibody, human IgG1, kappa, L234A L235A, N297A, name in Kabat numbering)
heavy: B1 heavy with F33W, Y61K
chain: B1 chain
light: B1 light
notes: one-arm antibody
B16: CE115HA000 H chain altered form Y58A (antibody, human IgG1, kappa, L234A L235A, N297A, name in Kabat numbering)
heavy: B1 heavy with F33W, Y61A
chain: B1 chain
light: B1 light
notes: one-arm antibody
B17: GLS3000 H27dP (Kabat) L chain altered form, one-arm antibody with CE115HA000 (antibody, human IgG1, kappa, L234A L235A, N297A, name in Kabat numbering)
heavy: B1 heavy with F33W
chain: B1 chain
light: B1 light with H31P
notes: one-arm antibody
B18: GLS3000 H27dF (Kabat) L chain altered form, one-arm antibody with CE115HA000 (antibody, human IgG1, kappa, L234A L235A, N297A, name in Kabat numbering)
heavy: B1 heavy with F33W
chain: B1 chain
light: B1 light with H31F
notes: one-arm antibody
B19: GLS3000 H27dI (Kabat) L chain altered form, one-arm antibody with CE115HA000 (antibody, human IgG1, kappa, L234A L235A, N297A, name in Kabat numbering)
heavy: B1 heavy with F33W
chain: B1 chain
light: B1 light with H31I
notes: one-arm antibody
B20: CE115HA000 H chain altered form Y58S (antibody, human IgG1, kappa, L234A L235A, N297A, name in Kabat numbering)
heavy: B1 heavy with F33W, Y61S
chain: B1 chain
light: B1 light
notes: one-arm antibody
B21: CE115HA000 H chain altered form Y55S (antibody, human IgG1, kappa, L234A L235A, N297A, name in Kabat numbering)
heavy: B1 heavy with F33W, Y58S
chain: B1 chain
light: B1 light
notes: one-arm antibody
B22: GLS3000 H27dQ (Kabat) L chain altered form, one-arm antibody with CE115HA000 (antibody, human IgG1, kappa, L234A L235A, N297A, name in Kabat numbering)
heavy: B1 heavy with F33W
chain: B1 chain
light: B1 light with H31Q
notes: one-arm antibody
B23: CE115HA000 H chain altered form Y59A (antibody, human IgG1, kappa, L234A L235A, N297A, name in Kabat numbering)
heavy: B1 heavy with F33W, Y62A
chain: B1 chain
light: B1 light
notes: one-arm antibody
B24: CE115HA000 H chain altered form Y58Q (antibody, human IgG1, kappa, L234A L235A, N297A, name in Kabat numbering)
heavy: B1 heavy with F33W, Y61Q
chain: B1 chain
light: B1 light
notes: one-arm antibody
B25: GLS3000 H27dN (Kabat) L chain altered form, one-arm antibody with CE115HA000 (antibody, human IgG1, kappa, L234A L235A, N297A, name in Kabat numbering)
heavy: B1 heavy with F33W
chain: B1 chain
light: B1 light with H31N
notes: one-arm antibody
B26: CE115HA000 H chain altered form Y58L (antibody, human IgG1, kappa, L234A L235A, N297A, name in Kabat numbering)
heavy: B1 heavy with F33W, Y61L
chain: B1 chain
light: B1 light
notes: one-arm antibody
B27: CE115HA000 H chain altered form Y59S (antibody, human IgG1, kappa, L234A L235A, N297A, name in Kabat numbering)
heavy: B1 heavy with F33W, Y62S
chain: B1 chain
light: B1 light
notes: one-arm antibody
B28: CE115HA000 H chain altered form Y59D (antibody, human IgG1, kappa, L234A L235A, N297A, name in Kabat numbering)
heavy: B1 heavy with F33W, Y62D
chain: B1 chain
light: B1 light
notes: one-arm antibody
B29: GLS3000 H27dG (Kabat) L chain altered form, one-arm antibody with CE115HA000 (antibody, human IgG1, kappa, L234A L235A, N297A, name in Kabat numbering)
heavy: B1 heavy with F33W
chain: B1 chain
light: B1 light with H31G
notes: one-arm antibody
B30: CE115HA000 H chain altered form W33L (antibody, human IgG1, kappa, L234A L235A, N297A, name in Kabat numbering)
heavy: B1 heavy with F33L
chain: B1 chain
light: B1 light
notes: one-arm antibody
B31: CE115HA000 H chain altered form W33Y (antibody, human IgG1, kappa, L234A L235A, N297A, name in Kabat numbering)
heavy: B1 heavy with F33Y
chain: B1 chain
light: B1 light
notes: one-arm antibody

How the values were obtained:
[1] = target: T1, CD3 epsilon homodimer protein (UniProt P07766 23-126); test: SPR Biacore T200, CD3 epsilon homodimer on chip, antibody as analyte;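 also: homodimer amine-coupled to a CM4 sensor chip, run at 25 °C in HBS-EP+ buffer, with kinetic parameters derived in Biacore T200 Evaluation Software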
T1 construct: also called CD3 (CD3 epsilon)
T1 sequence (P07766 23-126): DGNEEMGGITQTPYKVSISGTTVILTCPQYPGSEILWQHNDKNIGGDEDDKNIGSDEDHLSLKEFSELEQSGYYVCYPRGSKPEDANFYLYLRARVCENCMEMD

[2] = target: T2, CD3 epsilon homodimer protein (UniProt P07766 23-126); test: SPR Biacore T200, CD3 epsilon homodimer immobilized; vs unaltered GLS3000;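 also: antibody variants flowed as analyte over CD3 epsilon homodimer amine-coupled to a CM4 chip, at 25 °C in HBS-EP+ running buffer, fitted with Biacore T200 Evaluation Software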
T2 construct: construct not described; homodimer as printed; also called CD3 (CD3 epsilon)
T2 sequence (P07766 23-126): as above

Binder	KD ratio (KD of CE115HA000 / KD of altered form) [1]	KD ratio to GLS3000 (Affinity up) [2]
B1	0.66	–
B2	–	2.57
B3	–	3.8
B4	4.81	–
B5	–	3.43
B6	–	3.37
B7	–	1.16
B8	0.99	–
B9	1.86	–
B10	4.96	–
B11	0.89	–
B12	0.61	–
B13	–	13600
B14	–	42.3
B15	0.66	–
B16	1.06	–

Binder	KD ratio (KD of CE115HA000 / KD of altered form) [1]	KD ratio to GLS3000 (Affinity up) [2]
B17	–	9.21
B18	–	2.05
B19	–	7.77
B20	1.22	–
B21	5.65	–
B22	–	7.48
B23	0.74	–
B24	1.24	–
B25	–	3.43
B26	1.21	–
B27	0.79	–
B28	0.66	–
B29	–	3.51
B30	56600	–
B31	0.69	–
